The term pKd denotes −log10 of the Kd, conventionally taken in molar units.

The subject of the series is ProQ (Escherichia coli (BW25113-derived; ASKA pCA24N clone or pMCSG7 clone)). In words: tryptophan fluorescence titration. As to conditions: 20 nM ProQ, excitation 295 nm, emission 355 nm, buffer, salt, pH and temperature not in the material.

pKd: −log10 of the molar value.

On to rpoS mRNA, for which the pKd was 7.71.
On to proP P1 mRNA, for which the pKd was 7.77.
Turning to proP P2 mRNA, the pKd is 7.94.

The record behind these values is article PMC3808355.
